Results: article PMC4718896 (Biochemistry, 2015)
Like-named read-outs stand apart in the source and are kept apart here.

How the values were obtained:
PKR (Homo sapiens) = PKR (Homo sapiens) (UniProt P19525); settings: cited from earlier work
AUC [1] = target: the molecule itself; test: AUC
AUC [2] = target: the molecule itself; test: AUC; remark: listed apart in the source

Q: For PKR (from UniProt P19525), which Kd (PKR (Homo sapiens)) is on record?
A: 500 µM

B1: PKRΔV (human PKR with the variable region of the interdomain linker deleted) (enzyme, UniProt P19525 1-551, looked up)
chain: MAGDLSAGFFMEELNTYRQKQGVVLKYQELPNSGPPHDRRFTFQVIIDGREFPEGEGRSKKEAKNAAAKLAVEILNKEKKAVSPLLLTTTNSSEGLSMGNYIGLINRIAQKKRLTVNYEQCASGVHGPEGFHYKCKMGQKEYSIGTGSTKQEAKQLAAKLAYLQILMNGLRNNQRKAKRSLAPRFDLPDMKETKYTVDKRFGMDFKEIELIGSGGFGQVFKAKHRIDGKTYVIKRVKYNNEKAEREVKALAKLDHVNIVHYNGCWDGFDYDPETSDDSLESSDYDPENSKNSSRSKTKCLFIQMEFCDKGTLEQWIEKRRGEKLDKVLALELFEQITKGVDYIHSKKLIHRDLKPSNIFLVDTKQVKIGDFGLVTSLKNDGKRTRSKGTLRYMSPEQISSQDYGKEVDLYALGLILAELLHVCDTAFETSKFFTDLRDGIISDIFDKKEKTLLQKLLSKKPEDRPNTSEILRTLTVWKKSPEKNERHTC
Q: With B1 as the molecule, how does the Kd (AUC [1]) read?
A: 1100 µM

Q: What about the “stoichiometry N” value (AUC [1]) of the same molecule?
A: 2

B2: PKRΔVB (human PKR with the whole interdomain linker, variable and basic regions, deleted) (enzyme, UniProt P19525 1-551, looked up)
chain: MAGDLSAGFFMEELNTYRQKQGVVLKYQELPNSGPPHDRRFTFQVIIDGREFPEGEGRSKKEAKNAAAKLAVEILNKEKKAVSPLLLTTTNSSEGLSMGNYIGLINRIAQKKRLTVNYEQCASGVHGPEGFHYKCKMGQKEYSIGTGSTKQEAKQLAAKLAYLQILETKYTVDKRFGMDFKEIELIGSGGFGQVFKAKHRIDGKTYVIKRVKYNNEKAEREVKALAKLDHVNIVHYNGCWDGFDYDPETSDDSLESSDYDPENSKNSSRSKTKCLFIQMEFCDKGTLEQWIEKRRGEKLDKVLALELFEQITKGVDYIHSKKLIHRDLKPSNIFLVDTKQVKIGDFGLVTSLKNDGKRTRSKGTLRYMSPEQISSQDYGKEVDLYALGLILAELLHVCDTAFETSKFFTDLRDGIISDIFDKKEKTLLQKLLSKKPEDRPNTSEILRTLTVWKKSPEKNERHTC
Q: What does the source list for B2?
A: Kd (AUC [2]): 1730 µM; stoichiometry N (AUC [2]): 2
